In this data set the test system is Saccharomyces cerevisiae. Description: protein stability index of tFT-peptide fusion (C-terminal peptide) (PSI (0-1 scale)); higher = more stable (slower turnover). Particulars: temperature: 30 C. Here is the method: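 MPS profiling in S. cerevisiae of the yeast C-terminome library: the last 12 aa of each annotated ORF are fused to the C-terminus of a sfGFP-mCherry timer, after a GGGS linker. Cells are FACS-sorted into 8 mCherry/sfGFP bins and deep-sequenced. PSI runs from 0 (unstable) to 1 (stable); wild type and das1Δ backgrounds, two technical replicates each.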

Setting [1] is: genetic background: das1 deletion.

± gives the standard deviation of the averaged measurements.

For NVLGEPFDRYLD [UTP10 C-terminal 12 aa], the protein stability index is, setting by setting: under setting [1], 0.724 ± 0.017; (genetic background: wild type) 0.716 ± 0.013.
As to NVPVSNGTTAAQ [UTP23 C-terminal 12 aa], the protein stability index turned out to be 0.695 ± 0.013 under setting [1] and 0.691 ± 0.025 (genetic background: wild type).
Taken in the same sequence, the figures for NYFIITCIGIIM [YPL261C C-terminal 12 aa] were 0.228 ± 0.029 and 0.247 ± 0.0067.
Taken in the same sequence, the figures for NYGQYSSFWSLL [YOR055W C-terminal 12 aa] were 0.765 ± 0.019 and 0.754 ± 0.017.
For PADIATDHDITM [TAF8 C-terminal 12 aa], in that order: 0.717 ± 0.013 and 0.685 ± 0.0044.
In the case of PAKVGIVKGEEN [MGE1 C-terminal 12 aa], the protein stability index is, setting by setting: under setting [1], 0.693 ± 0.021; (genetic background: wild type) 0.709 ± 0.015.
With PCRYLELRKFGR [TPN1 C-terminal 12 aa], the protein stability index reads like this: under setting [1], 0.7005 ± 0.0046; (genetic background: wild type) 0.74 ± 0.045.
Taken in the same sequence, the figures for PFGNGFKMNFGL [JEM1 C-terminal 12 aa] were 0.736 ± 0.038 and 0.677 ± 0.058.
Taken in the same sequence, the figures for PFKAIFDAVTKE [ARO1 C-terminal 12 aa] were 0.73 ± 0.014 and 0.717 ± 0.021.
Taken in the same sequence, the figures for PFYRTSAESIDF [SLM5 C-terminal 12 aa] were 0.719 ± 0.022 and 0.706 ± 0.034.
With PGCVIENGTKLY [ADE57 C-terminal 12 aa], the protein stability index was 0.687 ± 0.012 under setting [1] and 0.71 ± 0.011 (genetic background: wild type).
“PIKIIYNNKCPS [YLL006W-A C-terminal 12 aa]”: the protein stability index is, setting by setting: under setting [1], 0.709 ± 0.02; (genetic background: wild type) 0.688 ± 0.0074.
Taken in the same sequence, the figures for PKGGNYVSRYQR [THO2 C-terminal 12 aa] were 0.695 ± 0.012 and 0.6623 ± 0.0015.
Taken in the same sequence, the figures for PKINPLHARKPT [RAD52 C-terminal 12 aa] were 0.7086 ± 0.0022 and 0.7036 ± 0.0028.
For PKSNMYYSWTQL [ORC4 C-terminal 12 aa], in that order: 0.7112 ± 0.0057 and 0.68625 ± 0.00028.
With PLALFYSHLILL [YGR151C C-terminal 12 aa], the protein stability index is, setting by setting: under setting [1], 0.6 ± 0.019; (genetic background: wild type) 0.27 ± 0.016.
On to PLGVQFLDTFRR [DSC2 C-terminal 12 aa], for which the protein stability index came to 0.718 ± 0.013 under setting [1] and 0.736 ± 0.051 (genetic background: wild type).
For “PLHFQLIWLPIF [YML099W-A C-terminal 12 aa]”, in that order: 0.5232 ± 0.00075 and 0.505 ± 0.012.
Taken in the same sequence, the figures for “PLKFPLPLKPPL [YHL034W-A C-terminal 12 aa]” were 0.715 ± 0.018 and 0.699 ± 0.022.
For PLMFHCTRWEVD [GEP5 C-terminal 12 aa], in that order: 0.6911 ± 0.0033 and 0.741 ± 0.064.
Consider PLPDLDEDDGEE [DOM34 C-terminal 12 aa], for which the protein stability index by setting is: under setting [1], 0.686 ± 0.0069; (genetic background: wild type) 0.704 ± 0.041.
Taken in the same sequence, the figures for PLSASWCTSLVT [YHR173C C-terminal 12 aa] were 0.696 ± 0.0087 and 0.671 ± 0.0088.
Turning to PNFGFLILNSEP [YAL064W C-terminal 12 aa], the protein stability index is, setting by setting: under setting [1], 0.73226 ± 0.00022; (genetic background: wild type) 0.68 ± 0.014.
For PNILLAFSYTAW [YNL170W C-terminal 12 aa], in that order: 0.532 ± 0.017 and 0.5663 ± 0.0014.
In the case of PPPPSRKCGTPK [LDB17 C-terminal 12 aa], the protein stability index reads like this: under setting [1], 0.713 ± 0.038; (genetic background: wild type) 0.7238 ± 0.0025.
For the sequence PSMTTTNFSAFM [ECM22 C-terminal 12 aa], the protein stability index runs as follows: under setting [1], 0.698 ± 0.008; (genetic background: wild type) 0.697 ± 0.058.
Taken in the same sequence, the figures for PSPTALANLARK [SGF29 C-terminal 12 aa] were 0.677 ± 0.039 and 0.693 ± 0.041.
As for PSSKAPSPGVNT [TEM1 C-terminal 12 aa], the protein stability index by setting is: under setting [1], 0.677 ± 0.017; (genetic background: wild type) 0.64 ± 0.026.
Take PTPPGLQGPPGL [MSL5 C-terminal 12 aa]: the protein stability index is, setting by setting: under setting [1], 0.692 ± 0.018; (genetic background: wild type) 0.693 ± 0.0097.
Taken in the same sequence, the figures for PVSESSSPNSWP [YDR230W C-terminal 12 aa] were 0.768 ± 0.012 and 0.706 ± 0.02.
On to QAADKRIDRNNP [SRD1 C-terminal 12 aa], for which the protein stability index under setting [1] was found to be 0.7185 ± 0.0037 and the protein stability index (genetic background: wild type) is 0.702 ± 0.022.
For QDELDAMKEMGF [CSM3 C-terminal 12 aa], the protein stability index runs as follows: under setting [1], 0.698 ± 0.023; (genetic background: wild type) 0.699 ± 0.049.
For QDRSCSWLKLLL [YLR171W C-terminal 12 aa], in that order: 0.685 ± 0.021 and 0.704 ± 0.021.
As to QEISYKFSKTYS [IME1 C-terminal 12 aa], the protein stability index is 0.676 ± 0.021 under setting [1] and 0.664 ± 0.038 (genetic background: wild type).
Taken in the same sequence, the figures for QELISLIDVINQ [RNH203 C-terminal 12 aa] were 0.7225 ± 0.005 and 0.739 ± 0.035.
For QFKQILENYRPT [VPS38 C-terminal 12 aa], in that order: 0.664 ± 0.0088 and 0.7348 ± 0.0013.
QIVGLLKLLASI [PEX15 C-terminal 12 aa] had a protein stability index under setting [1] of 0.68 ± 0.036 and a protein stability index (genetic background: wild type) of 0.405 ± 0.038.
For QIVGRYVVDTSK [ADH1 C-terminal 12 aa], the protein stability index turned out to be 0.6827 ± 0.0057 under setting [1] and 0.683 ± 0.015 (genetic background: wild type).
Taken in the same sequence, the figures for QKIDNALKMTGR [YDR102C C-terminal 12 aa] were 0.6896 ± 0.0062 and 0.705 ± 0.0095.
In turn, QKLHAIDGEDEL [GPI17 C-terminal 12 aa] showed a protein stability index under setting [1] of 0.688 ± 0.017 and a protein stability index (genetic background: wild type) of 0.649 ± 0.028.
On to QLQDLLSSENNK [AIM11 C-terminal 12 aa], for which the protein stability index reads like this: under setting [1], 0.7169 ± 0.0021; (genetic background: wild type) 0.688 ± 0.032.
Taken in the same sequence, the figures for QNYPIVSFSRVI [OSW1 C-terminal 12 aa] were 0.7236 ± 0.0058 and 0.685 ± 0.012.
For QPINLDSISDDL [DRE2 C-terminal 12 aa], in that order: 0.7068 ± 0.0039 and 0.766 ± 0.12.
Taken in the same sequence, the figures for QQYFQEPQQGQY [MCM1 C-terminal 12 aa] were 0.676 ± 0.0068 and 0.703 ± 0.077.
With QSATKNQQNQGK [SSQ1 C-terminal 12 aa], the protein stability index reads like this: under setting [1], 0.679 ± 0.011; (genetic background: wild type) 0.656 ± 0.01.
In the case of QSKNIEIFSQIK [YGR067C C-terminal 12 aa], the protein stability index under setting [1] was 0.71 ± 0.031 and the protein stability index (genetic background: wild type) came out at 0.695 ± 0.018.
Taken in the same sequence, the figures for QSQYSSRFVELD [MCO12 C-terminal 12 aa] were 0.691 ± 0.015 and 0.6892 ± 0.0068.
On to QVKLSILKSLGF [UBC7 C-terminal 12 aa], for which the protein stability index came to 0.702 ± 0.02 under setting [1] and 0.657 ± 0.0096 (genetic background: wild type).
As for QVTAVVVSYQGV [ATG11 C-terminal 12 aa], the protein stability index is, setting by setting: under setting [1], 0.5882 ± 0.0024; (genetic background: wild type) 0.5999 ± 0.0039.
With RAGSHSVGLLPM [UIP5 C-terminal 12 aa], the protein stability index is, setting by setting: under setting [1], 0.6976 ± 0.0019; (genetic background: wild type) 0.6835 ± 0.0029.
Taken in the same sequence, the figures for RAQPGRKRKHKK [RSC58 C-terminal 12 aa] were 0.743 ± 0.019 and 0.696 ± 0.0068.
The sequence RDGQKTSLIRLI [YBR259W C-terminal 12 aa] showed a protein stability index under setting [1] of 0.711 ± 0.035 and a protein stability index (genetic background: wild type) of 0.57 ± 0.11.
For REETEKLNINKD [YAR1 C-terminal 12 aa], in that order: 0.71 ± 0.014 and 0.66 ± 0.067.
For REVREIHEMYCK [YKR012C C-terminal 12 aa], in that order: 0.696 ± 0.034 and 0.6885 ± 0.0035.
Taken in the same sequence, the figures for RGDDGESYAYLA [CDC53 C-terminal 12 aa] were 0.69274 ± 0.00042 and 0.691 ± 0.0089.
With RGFSFMPDDLDL [PKC1 C-terminal 12 aa], the protein stability index was found to be 0.722 ± 0.013 under setting [1] and 0.72 ± 0.028 (genetic background: wild type).
For RHQGQNIYRSGV [MCM5 C-terminal 12 aa], in that order: 0.682 ± 0.03 and 0.674 ± 0.022.
Taken in the same sequence, the figures for RHSMSEEELEMY [KTR4 C-terminal 12 aa] were 0.689 ± 0.034 and 0.685 ± 0.044.
For RKFSSSTNLAKF [TOS8 C-terminal 12 aa], in that order: 0.779 ± 0.039 and 0.81 ± 0.012.
For the sequence RKGWTGFKKVFK [GYP5 C-terminal 12 aa], the protein stability index runs as follows: under setting [1], 0.695 ± 0.025; (genetic background: wild type) 0.699 ± 0.061.
Taken in the same sequence, the figures for RLAKKVARRNAD [RPS24A C-terminal 12 aa] were 0.693 ± 0.0097 and 0.683 ± 0.024.
Consider RLGDVLHVCCPS [YHL049C C-terminal 12 aa], for which the protein stability index is, setting by setting: under setting [1], 0.717 ± 0.03; (genetic background: wild type) 0.7 ± 0.097.
Taken in the same sequence, the figures for “RLKSSVICSGTS [YLR399W-A C-terminal 12 aa]” were 0.68237 ± 6.9e-05 and 0.664 ± 0.015.
RMSNGLYTISMS [YPR050C C-terminal 12 aa]: the protein stability index is, setting by setting: under setting [1], 0.694 ± 0.017; (genetic background: wild type) 0.6869 ± 0.0011.
Taken in the same sequence, the figures for RNLLSTYHPMLM [YLR124W C-terminal 12 aa] were 0.679 ± 0.0082 and 0.665 ± 0.0023.
Taken in the same sequence, the figures for RNRLENISTMVI [YIA6 C-terminal 12 aa] were 0.71 ± 0.012 and 0.709 ± 0.019.
Taken in the same sequence, the figures for RPWYVRQFHFWC [TAT2 C-terminal 12 aa] were 0.713 ± 0.0097 and 0.538 ± 0.011.
